In PMC4320653:

Columns and labels:
TRBP (Homo sapiens) = TRBP (Homo sapiens) (UniProt Q15633); details: cited from earlier work
[1] = molecular target: human Dicer, wild type, full-length (human) (UniProt Q9UPY3); assay: ITC

| Kd [1] [nM] | dH [1] [kcal/mol] | stoichiometry N [1] | Molecule | Kd (TRBP (Homo sapiens)) [µM] |
| --- | --- | --- | --- | --- |
|  |  |  | TRBP (from UniProt Q15633) | 54 |
| 2.8 | -15.9 | 0.84 | human TRBP (isoform TRBP2, 366 residues), full-length, residues 1-366 (natural protein) MSEEEQGSGTTTGCGLPSIEQMLAANPGKTPISLLQEYGTRIGKTPVYDLLKAEGQAHQPNFTFRVTVGDTSCTGQGPSKKAAKHKAAEVALKHLKGGSMLEPALEDSSSFSPLDSSLPEDIPVFTAAAAATPVPSVVLTRSPPMELQPPVSPQQSECNPVGALQELVVQKGWRLPEYTVTQESGPAHRKEFTMTCRVERFIEIGSGTSKKLAKRNAAAKMLLRVHTVPLDARDGNEVEPDDDHFSIGVGSRLDGLRNRGPGCTWDSLRNSVGEKILSLRSCSLGSLGALGPACCRVLSELSEEQAFHVSYLDIEELSLSGLCQCLVELSTQPATVCHGSATTREAARGEAARRALQYLKIMAGSK |  |
| 4.3 | -23.2 | 1.35 | TRBP3: third dsRBD of human TRBP with its N-terminal extension, residues 258-366 (domain or fragment) NRGPGCTWDSLRNSVGEKILSLRSCSLGSLGALGPACCRVLSELSEEQAFHVSYLDIEELSLSGLCQCLVELSTQPATVCHGSATTREAARGEAARRALQYLKIMAGSK |  |
